Assays:
Assay in all cases: cell-based or functional assay
[1] = target: MAGE-A3: 243-256 peptide presented by HLA-DP*0401 on 293-CIITA cells (human, UniProt P20036 29-260)
[2] = target: MAGE-A3: 243-255 peptide presented by HLA-DP*0401 on 293-CIITA cells (human, UniProt P20036 29-260)
[3] = target: MAGE-A3: 243-254 peptide presented by HLA-DP*0401 on 293-CIITA cells (human, UniProt P20036 29-260)
[4] = target: MAGE-A3: 243-253 peptide presented by HLA-DP*0401 on 293-CIITA cells (human, UniProt P20036 29-260)
[5] = target: MAGE-A3: 245-258 peptide presented by HLA-DP*0401 on 293-CIITA cells (human, UniProt P20036 29-260)
[6] = target: MAGE-A3: 246-258 peptide presented by HLA-DP*0401 on 293-CIITA cells (human, UniProt P20036 29-260)
[7] = target: MAGE-A3: 247-258 peptide presented by HLA-DP*0401 on 293-CIITA cells (human, UniProt P20036 29-260)
[8] = target: MAGE-A3: 248-258 peptide presented by HLA-DP*0401 on 293-CIITA cells (human, UniProt P20036 29-260)
[9] = target: MAGE-A3: 249-258 peptide presented by HLA-DP*0401 on 293-CIITA cells (human, UniProt P20036 29-260)
[10] = target: MAGE-A6: 248-258 peptide presented by HLA-DP*0401 on 293-CIITA cells (human, UniProt P20036 29-260)
[11] = target: MAGE-A2/A12: 248-258 peptide presented by HLA-DP*0401 on 293-CIITA cells (human, UniProt P20036 29-260)
[12] = target: MAGE-A4/A9: 249-259 peptide presented by HLA-DP*0401 on 293-CIITA cells (human, UniProt P20036 29-260)
[13] = target: MAGE-A8: 251-261 peptide presented by HLA-DP*0401 on 293-CIITA cells (human, UniProt P20036 29-260)
[14] = target: MAGE-A1/B4: 241-251 peptide presented by HLA-DP*0401 on 293-CIITA cells (human, UniProt P20036 29-260)
[15] = target: MAGE-B2: 250-260 peptide presented by HLA-DP*0401 on 293-CIITA cells (human, UniProt P20036 29-260)
[16] = target: MAGE-B10: 250-260 peptide presented by HLA-DP*0401 on 293-CIITA cells (human, UniProt P20036 29-260)
[17] = target: MAGE-B16: 252-262 peptide presented by HLA-DP*0401 on 293-CIITA cells (human, UniProt P20036 29-260)
[18] = target: MAGE-C1: 113-123 peptide presented by HLA-DP*0401 on 293-CIITA cells (human, UniProt P20036 29-260)
[19] = target: MAGE-D4: 300-315 peptide presented by HLA-DP*0401 on 293-CIITA cells (human, UniProt P20036 29-260)
[20] = target: MAGE-D2: 413-428 peptide presented by HLA-DP*0401 on 293-CIITA cells (human, UniProt P20036 29-260)
[21] = target: MAGE-L2: 582-597 peptide presented by HLA-DP*0401 on 293-CIITA cells (human, UniProt P20036 29-260)
[22] = target: MAGE-G1: 220-235 peptide presented by HLA-DP*0401 on 293-CIITA cells (human, UniProt P20036 29-260)
[23] = target: Necdin: 237-247 peptide presented by HLA-DP*0401 on 293-CIITA cells (human, UniProt P20036 29-260)
[24] = target: MAGE-A3: 243-258 peptide presented by HLA-DP*0401 on 293-CIITA cells (human, UniProt P20036 29-260)

- IFN-g (pg/ml); CD4+ T cells of PBMC-1; 293-CIITA pulsed with peptide [1]: 1820 pg/mL
- IFN-g (pg/ml); CD4+ T cells of PBMC-2; 293-CIITA pulsed with peptide [1]: 2490 pg/mL
- IFN-g (pg/ml); CD4+ T cells of PBMC-1; 293-CIITA pulsed with peptide [2]: 137 pg/mL
- IFN-g (pg/ml); CD4+ T cells of PBMC-2; 293-CIITA pulsed with peptide [2]: 117 pg/mL
- IFN-g (pg/ml); CD4+ T cells of PBMC-1; 293-CIITA pulsed with peptide [3]: 0 pg/mL
- IFN-g (pg/ml); CD4+ T cells of PBMC-2; 293-CIITA pulsed with peptide [3]: 39 pg/mL
- IFN-g (pg/ml); CD4+ T cells of PBMC-1; 293-CIITA pulsed with peptide [4]: 40 pg/mL
- IFN-g (pg/ml); CD4+ T cells of PBMC-2; 293-CIITA pulsed with peptide [4]: 45 pg/mL
- IFN-g (pg/ml); CD4+ T cells of PBMC-1; 293-CIITA pulsed with peptide [5]: 15000 pg/mL
- IFN-g (pg/ml); CD4+ T cells of PBMC-2; 293-CIITA pulsed with peptide [5]: 17800 pg/mL
- IFN-g (pg/ml); CD4+ T cells of PBMC-1; 293-CIITA pulsed with peptide [6]: 12700 pg/mL
- IFN-g (pg/ml); CD4+ T cells of PBMC-2; 293-CIITA pulsed with peptide [6]: 16200 pg/mL
- IFN-g (pg/ml); CD4+ T cells of PBMC-1; 293-CIITA pulsed with peptide [7]: 10600 pg/mL
- IFN-g (pg/ml); CD4+ T cells of PBMC-2; 293-CIITA pulsed with peptide [7]: 13300 pg/mL
- IFN-g (pg/ml); CD4+ T cells of PBMC-1; 293-CIITA pulsed with peptide [8]: 9000 pg/mL
- IFN-g (pg/ml); CD4+ T cells of PBMC-2; 293-CIITA pulsed with peptide [8]: 8700 pg/mL
- IFN-g (pg/ml); CD4+ T cells of PBMC-1; 293-CIITA pulsed with peptide [9]: 1640 pg/mL
- IFN-g (pg/ml); CD4+ T cells of PBMC-2; 293-CIITA pulsed with peptide [9]: 2030 pg/mL
- IFN-g (pg/ml); CD4+ T cells of PBMC-1; 293-CIITA pulsed with peptide [10]: 11800 pg/mL
- IFN-g (pg/ml); CD4+ T cells of PBMC-2; 293-CIITA pulsed with peptide [10]: 8370 pg/mL
- IFN-g (pg/ml); CD4+ T cells of PBMC-1; 293-CIITA pulsed with peptide [11]: 66 pg/mL
- IFN-g (pg/ml); CD4+ T cells of PBMC-2; 293-CIITA pulsed with peptide [11]: 56 pg/mL
- IFN-g (pg/ml); CD4+ T cells of PBMC-1; 293-CIITA pulsed with peptide [12]: 23 pg/mL
- IFN-g (pg/ml); CD4+ T cells of PBMC-2; 293-CIITA pulsed with peptide [12]: 26 pg/mL
- IFN-g (pg/ml); CD4+ T cells of PBMC-1; 293-CIITA pulsed with peptide [13]: 58 pg/mL
- IFN-g (pg/ml); CD4+ T cells of PBMC-2; 293-CIITA pulsed with peptide [13]: 41 pg/mL
- IFN-g (pg/ml); CD4+ T cells of PBMC-1; 293-CIITA pulsed with peptide [14]: 126 pg/mL
- IFN-g (pg/ml); CD4+ T cells of PBMC-2; 293-CIITA pulsed with peptide [14]: 84 pg/mL
- IFN-g (pg/ml); CD4+ T cells of PBMC-1; 293-CIITA pulsed with peptide [15]: 0 pg/mL
- IFN-g (pg/ml); CD4+ T cells of PBMC-2; 293-CIITA pulsed with peptide [15]: 20 pg/mL
- IFN-g (pg/ml); CD4+ T cells of PBMC-1; 293-CIITA pulsed with peptide [16]: 18 pg/mL
- IFN-g (pg/ml); CD4+ T cells of PBMC-2; 293-CIITA pulsed with peptide [16]: 34 pg/mL
- IFN-g (pg/ml); CD4+ T cells of PBMC-1; 293-CIITA pulsed with peptide [17]: 27 pg/mL
- IFN-g (pg/ml); CD4+ T cells of PBMC-2; 293-CIITA pulsed with peptide [17]: 28 pg/mL
- IFN-g (pg/ml); CD4+ T cells of PBMC-1; 293-CIITA pulsed with peptide [18]: 0 pg/mL
- IFN-g (pg/ml); CD4+ T cells of PBMC-2; 293-CIITA pulsed with peptide [18]: 27 pg/mL
- IFN-g (pg/ml); CD4+ T cells of PBMC-1; 293-CIITA pulsed with peptide [19]: 234 pg/mL
- IFN-g (pg/ml); CD4+ T cells of PBMC-2; 293-CIITA pulsed with peptide [19]: 268 pg/mL
- IFN-g (pg/ml); CD4+ T cells of PBMC-1; 293-CIITA pulsed with peptide [20]: 43 pg/mL
- IFN-g (pg/ml); CD4+ T cells of PBMC-2; 293-CIITA pulsed with peptide [20]: 223 pg/mL
- IFN-g (pg/ml); CD4+ T cells of PBMC-1; 293-CIITA pulsed with peptide [21]: 56 pg/mL
- IFN-g (pg/ml); CD4+ T cells of PBMC-2; 293-CIITA pulsed with peptide [21]: 107 pg/mL
- IFN-g (pg/ml); CD4+ T cells of PBMC-1; 293-CIITA pulsed with peptide [22]: 29 pg/mL
- IFN-g (pg/ml); CD4+ T cells of PBMC-2; 293-CIITA pulsed with peptide [22]: 33 pg/mL
- IFN-g (pg/ml); CD4+ T cells of PBMC-1; 293-CIITA pulsed with peptide [23]: 22 pg/mL
- IFN-g (pg/ml); CD4+ T cells of PBMC-2; 293-CIITA pulsed with peptide [23]: 32 pg/mL
- IFN-g (pg/ml); CD4+ T cells of PBMC-1; 293-CIITA pulsed with peptide [24]: 15200 pg/mL
- IFN-g (pg/ml); CD4+ T cells of PBMC-2; 293-CIITA pulsed with peptide [24]: 17500 pg/mL
B1: 6F9mC TCR (TCR)
TCR alpha: QTVTQSQPEMSVQEAETVTLSCTYDTSESDYYLFWYKQPPSRQMILVIRQEAYKQQNATENRFSVNFQKAAKSFSLKISDSQLGDAAMYFCALRSSGTYKYIFGTGTRLKVLANIQNPEPAVYQLKDPRSQDSTLCLFTDFDSQINVPKTMESGTFITDKTVLDMKAMDSKSNGAIAWSNQTSFTCQDIFKETNATYPSSDVPCDATLTEKSFETDMNLNFQNLSVMGLRILLLKVAGFNLLMTLRLWSS
TCR beta: GAGVSQSPSNKVTEKGKDVELRCDPISGHTALYWYRQSLGQGLEFLIYFQGNSAPDKSGLPSDRFSAERTGGSVSTLTIQRTQQEDSAVYLCASIRTGPFFSGNTIYFGEGSWLTVVEDLRNVTPPKVSLFEPSKAEIANKQKATLVCLARGFFPDHVELSWWVNGKEVHSGVSTDPQAYKESNYSYCLSSRLRVSATFWHNPRNHFRCQVQFHGLSEEDKWPEGSPKPVTQNISAEAWGRADCGITSASYHQGVLSATILYEILLGKATLYAVLVSGLVLMAMVKRKNS

Source: patent US20150246959A1 (US Dept. of Health and Human Services, published 2015)
